The values that follow come from FireProtDB (doi:10.1021/bi000849s).

B1: Lysozyme C, P61626 (parent)
chain: MKALIVLGLVLLSVTVQGKVFERCELARTLKRLGMDGYRGISLANWMCLAKWESGYNTRATNYNAGDRSTDYGIFQINSRYWCNDGKTPGAVNACHLSCSALLQDNIADAVACAKRVVRDPQGIRAWVAWRNRCQNRDVRQYVQGCGV

Variants of B1 are the subject of the data set. The following applies: Homo sapiens, Thermal, DSC, reversible: yes, structure 1LZ1, whole UniProt chain shown; for ddG of mutation (higher = less stable) / unfolding free energy: 65 °C.
The mark [1] stands for this setting: pH 2.2, glycine hydrochloride 0.05 M.
[2] abbreviates: pH 2.3, glycine hydrochloride 0.05 M, KCl 0.2 M.
[3] abbreviates: pH 4.5, sodium acetate 0.02 M, KCl 0.2 M.

Regarding D67N, under setting [1], the Tm was determined as 57.5 °C and the “change of melting temperature, mutant - wild type (higher = more stable)” value (“change of melting temperature, mutant” for short) was 0 °C. Under “pH 4, sodium acetate 0.02 M”, the “ddG of mutation (higher = less stable)” value was found to be 1 kcal/mol; the unfolding free energy is 4.42 kcal/mol; the Tm stood at 77.4 °C; the “change of melting temperature, mutant” value is -2.7 °C.

For the variant D85N, the Tm reads like this: under setting [1], 56.8 °C; under setting [2], 55.2 °C; (pH 4, sodium acetate 0.02 M) 74 °C; under setting [3], 72.5 °C. The “change of melting temperature, mutant” value by setting is: under setting [1], -0.7 °C; under setting [2], -1 °C; (pH 4, sodium acetate 0.02 M) -6.1 °C; under setting [3], -5.2 °C. Moreover, the “ddG of mutation (higher = less stable)” value (pH 4, sodium acetate 0.02 M) worked out at 2.25 kcal/mol and the “ddG of mutation (higher = less stable)” value under setting [3] was 1.7 kcal/mol. Also, the unfolding free energy is 3.18 kcal/mol (pH 4, sodium acetate 0.02 M) and 2.37 kcal/mol under setting [3].

In the case of D120N, under setting [1], the melting temperature (Tm) was 58.1 °C and the “change of melting temperature, mutant” value was 0.6 °C. In addition, under setting [2], the Tm was determined as 56.7 °C and the “change of melting temperature, mutant” value was 0.5 °C. Also, for the setting “pH 4, sodium acetate 0.02 M”, the “ddG of mutation (higher = less stable)” value came out at 0.67 kcal/mol and the unfolding free energy came to 4.76 kcal/mol. For the same variant, under setting [3], the “ddG of mutation (higher = less stable)” value is -0.07 kcal/mol; the unfolding free energy was 4.13 kcal/mol; the midpoint of thermal melting (Tm) came out at 77.9 °C; the “change of melting temperature, mutant” value was determined as 0.2 °C.

Regarding D138N, under setting [1], the Tm worked out at 57.8 °C and the “change of melting temperature, mutant” value came to 0.3 °C. In addition, under setting [2], the Tm came to 56.9 °C and the “change of melting temperature, mutant” value amounted to 0.7 °C. Where the note is “pH 4, sodium acetate 0.02 M”, the “ddG of mutation (higher = less stable)” value was found to be 0.67 kcal/mol; the unfolding free energy stood at 4.76 kcal/mol; the Tm was 78.3 °C; the “change of melting temperature, mutant” value was -1.8 °C. Further, under setting [3], the “ddG of mutation (higher = less stable)” value was -0.05 kcal/mol; the unfolding free energy turned out to be 4.13 kcal/mol; the midpoint of thermal melting (Tm) came to 77.8 °C; the “change of melting temperature, mutant” value was found to be 0.1 °C.

With D36N, under setting [1], the Tm worked out at 56 °C and the “change of melting temperature, mutant” value is -1.5 °C. Where the note is “pH 4, sodium acetate 0.02 M”, the Tm was 75.5 °C and the “change of melting temperature, mutant” value was -4.6 °C.

With E25Q, the Tm under setting [1] worked out at 57.8 °C; the Tm under setting [2] came out at 54.6 °C; the Tm (pH 4, sodium acetate 0.02 M) amounted to 76.2 °C; the Tm under setting [3] came to 75.5 °C. The “change of melting temperature, mutant” value was 0.3 °C under setting [1]; -1.6 °C under setting [2]; -3.9 °C (pH 4, sodium acetate 0.02 M); -2.2 °C under setting [3]. Also, the “ddG of mutation (higher = less stable)” value (pH 4, sodium acetate 0.02 M) was determined as 1.43 kcal/mol and the “ddG of mutation (higher = less stable)” value under setting [3] stood at 1.29 kcal/mol. For the same variant, the unfolding free energy by setting is: (pH 4, sodium acetate 0.02 M) 3.99 kcal/mol; under setting [3], 2.77 kcal/mol.
